Measurements published in patent publication US11629193B2, “EGFR binding molecules” (F-STAR BETA LIMITED, priority 2016, dated 2023).
Entries after “also recorded” stand apart in the source; their conditions may differ. One block for each molecule: values may come before it.

Legend:
NCI-H1975 cells = assay: Cell proliferation, NCI-H1975 cells stimulated with HGF; format: cell-based
Description: NCI-H1975 (ATCC CRL-5908) is a non-small cell lung cancer (NSCLC) cell line which expresses constitutively active mutated EGFR L858R and EGFR T790M (Kobayashi et al 2005). These mutations are acquired secondary mutations known to confer resistance to EGFR tyrosine kinase inhibitor (TKI) therapies in NSCLC patients. The NCI-H1975 cell line also expresses c-Met. […] The same method was used as in the U87MG assay described above, except that the NCI-H1975 cells were stimulated with HGF. One day before the treatment, the medium used was changed from containing 10% FBS to containing no serum. Treatments were added at various concentrations (0.003-300 nM) in the presence of 80 ng/ml HGF and incubated for 3 days at 37° C.

NCI-H596 cells = assay: Cell proliferation, NCI-H596 cells stimulated with EGF and HGF; format: cell-based; details: NCI-H596, 10-1000 nM, 2 ng/ml EGF and 12 ng/ml HGF, 3 days
Description: NCI-H596 (ATCC HTB-178) is a lung adenosquamous cancer cell line that engages both the EGF and HGF signalling pathways and was used to investigate the ability of mAb^2 molecules to block proliferation. The same method was used as in the U87MG assay described above, except that the NCI-H596 cells were stimulated with both EGF and HGF ligands. One day before the treatment, the level of FBS used in the media was reduced from 10% to 1%. The next day treatments were added at various concentrations (10-1000 nM) in the presence of 2 ng/ml EGF (R&D systems, 236-EG) and 12 ng/ml HGF (PeproTech, 100-39) and incubated for 3 days at 37° C. Controls of HGF+EGF, EGF only, HGF only and no ligand stimulation were also included.

HGF = target: T1, HGF (Homo sapiens, UniProt P14210); assay: Free HGF in culture media of U87MG cells (HGF Human ELISA Kit); format: cell-based; details: 30 nM, 4 days, compared to controls
T1 construct: examined in U87MG cells that secrete HGF; endogenous in cells; host or cells: U87MG
Description: It was hypothesised that internalisation of HGF by anti-EGFR/HGF mAb^2 leads to reduced level of HGF in the system. To test this hypothesis, the change in level of free HGF caused by incubation with anti-EGFR/HGF mAb^2 was examined in U87MG cells that secrete HGF. U87MG cultures were incubated with different treatments at 30 nM for 4 days at 37° C. […] On day 4, the media from each cell culture were collected for HGF level analysis. HGF concentration was measured using HGF Human ELISA Kit (ThermoFisher, KAC2211) following the manufacturer's protocol. Using monoclonal anti-HGF antibodies, the free HGF in media was detected (free HGF was defined as HGF in the media which was bound by detection antibodies).

[1] = system: phosphorylation of MAPK and Akt; assay: Western blot of downstream signalling in U87MG cells; format: cell-based, human; details: 200 nM (200+200 nM for combination), HGF and EGF present
Description: (§1) Overnight cultures of the glioblastoma cell line U87MG (ATCC HTB-14) were moved from a medium with 10% FBS to a low serum medium with 0.1% FBS to optimise sensitivity to ligand stimulation. The cells were incubated overnight. […] Controls without antibody treatment were included, with and without growth factor stimulation. The treated cells were lysed using lysis buffer (10 mM Tris® pH7.5, 150 mM NaCl, 1 mM EDTA) comprising 1:100 protease inhibitor cocktail (Calbiochem, 539131) and 1:100 Phosphatase inhibitor cocktail (Calbiochem, 524625) and the lysates collected for analysis.
(§2) Lysate samples were subjected to standard western blotting analysis using a 4-12% Bis-Tris® protein gel (ThermoFisher, NP0322BOX) and transferred to a nitrocellulose membrane (ThermoFisher, IB301001). The membrane was blocked with 5% Marvel milk/TBST and then probed for phospho-c-Met using a rabbit monoclonal antibody specific for c-Met phosphorylated at Tyr1234/1235 (Cell Signaling, 3077), phospho-EGFR using a mouse monoclonal antibody specific for EGFR phosphorylated at Tyr1068 (Cell Signaling, 2236), phospho-MAPK using a mouse monoclonal antibody specific for p44/42 MAPK (ERK1/2) phosphorylated at Thr202/Tyr204 (Cell Signaling, 9106), and phospho-Akt using a rabbit monoclonal antibody specific for Akt phosphorylated at Ser473 (Cell Signaling, 9271). […]

[2] = system: phosphorylation of c-Met and EGFR; assay: Western blot of receptor phosphorylation in U87MG cells; format: cell-based, human; details: 200 nM, 20 min
Description: as §1, §2

KP4 cells = assay: Cell proliferation, KP4 cells (WST-1); format: cell-based; details: KP4, 0.003-300 nM, 3 days
Description: KP4 (Riken RCB1005) is a pancreatic ductal cell carcinoma which has autocrine production of HGF. […] After 3 days, cells were analysed using cell proliferation reagent WST-1 (Roche) to determine the number of viable cells as described in the manufacturer's protocol. The stable tetrazolium salt WST-1 is cleaved to a soluble formazan by the glycolytic production of NAD(P)H in viable cells. The amount of formazan dye formed is quantitated at absorbances 450 nm and 630 nm.

HER3 = target: T2, HER3 (Homo sapiens, UniProt P21860); assay: ELISA for specific binding within the HER receptor family; details: 1 μM, antigen coated at 1 μg/ml
T2 construct: purchased Sino Biological 10201-H08H
Description: Antigens including EGFR (produced in house), HER2 His Tag (Sino Biological, 10004-H08H), HER3 His Tag (Sino Biological, 10201-H08H) and HER4 His Tag (Sino Biological, 10363-H08H) were biotinylated using the Lightning-Link™ Biotin kit (Innova Biosciences, 704-0030) following the supplier's protocol. The biotinylated antigens were coated in different wells on MaxiSorp™ plate (Nunc) at 1 μg/ml in PBS overnight at 4° C. and excess unbound antigens were washed off with PBS. The antigen-coated plate was blocked with 1% TWEEN® in PBS (PBST) for 1 hour at room temperature. After removing PBST, the anti-EGFR Fcabs (1 μM) and relevant positive and IgG negative antibody controls (1 μM) in 0.1% PBST were incubated for 1 hour to bind the coated antigens followed by washing. The bound Fcabs or antibodies were detected by Protein A-HRP (ThermoFisher 101023) or anti-mouse IgG-horseradish peroxidase (HRP) (Sigma A9044) for the HER4 positive control. Tetramethylbenzidine (TMB) (eBioscience 00-4201-56) was used as the substrate to interact with HRP enzyme for colorimetric detection. 1 M Sulphuric acid was added to stop the enzyme-substrate reaction. The plate was read at an absorbance of 450 nm subtracted by 630 nm as background.

T1 sequence (P14210 32-728): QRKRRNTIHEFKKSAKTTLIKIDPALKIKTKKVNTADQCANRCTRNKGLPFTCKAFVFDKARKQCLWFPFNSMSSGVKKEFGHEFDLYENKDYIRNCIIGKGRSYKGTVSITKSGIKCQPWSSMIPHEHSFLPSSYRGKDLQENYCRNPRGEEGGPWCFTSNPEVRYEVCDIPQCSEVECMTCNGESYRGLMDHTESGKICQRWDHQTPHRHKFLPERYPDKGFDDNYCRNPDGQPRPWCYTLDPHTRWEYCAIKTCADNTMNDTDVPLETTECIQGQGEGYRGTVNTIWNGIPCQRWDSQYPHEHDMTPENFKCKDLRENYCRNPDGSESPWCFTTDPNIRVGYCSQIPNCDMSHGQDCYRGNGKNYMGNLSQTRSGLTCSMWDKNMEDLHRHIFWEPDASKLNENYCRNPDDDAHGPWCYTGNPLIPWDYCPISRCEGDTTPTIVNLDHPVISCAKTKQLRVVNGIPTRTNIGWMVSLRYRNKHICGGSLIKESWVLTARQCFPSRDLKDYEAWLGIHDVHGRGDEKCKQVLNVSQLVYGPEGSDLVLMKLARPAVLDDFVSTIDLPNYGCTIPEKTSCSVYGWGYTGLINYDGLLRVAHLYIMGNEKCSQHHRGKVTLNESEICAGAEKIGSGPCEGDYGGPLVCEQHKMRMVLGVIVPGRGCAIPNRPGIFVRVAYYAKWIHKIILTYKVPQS

B1: ficlatuzumab (antibody, V domains shown)
VH: QVQLVQPGAEVKKPGTSVKLSCKASGYTFTTYWMHWVRQAPGQGLEWIGEINPTNGHTNYNQKFQGRATLTVDKSTSTAYMELSSLRSEDTAVYYCARNYVGSIFDYWGQGTLLTVSS
VL: DIVMTQSPDSLAMSLGERVTLNCKASENVVSYVSWYQQKPGQSPKLLIYGASNRESGVPDRFSGSGSATDFTLTISSVQAEDVADYHCGQSYNYPYTFGQGTKLEIKR
modifications: FI VH domain; FI VL domain
reduction of cell proliferation induced by HGF (NCI-H1975 cells; NCI-H1975, 0.003-300 nM, 80 ng/ml HGF, 3 days): did not
reduction of cell proliferation induced by HGF (NCI-H1975 cells; NCI-H1975, antibodies 300 nM with and without erlotinib (2 μM)): No effect
inhibition of cell proliferation induced by HGF and EGF (NCI-H596 cells): unable to block stimulation when both ligands were present
concentration of free HGF in the media (HGF): significant decrease in the concentration of free HGF in the media
block of phosphorylation of MAPK and Akt [1]: unable to block the phosphorylation of MAPK and Akt
block of phosphorylation of c-Met by HGF [2]: able to block the phosphorylation of c-Met by HGF
reduction in cell proliferation (WST-1) (KP4 cells): concentration-dependent reduction in cell proliferation; also recorded: inhibited cell proliferation, but to a lesser extent

binding to HER3 (HER3): bound to their corresponding antigens
B2: MM121: antibody MM121 (Merrimack), positive control for HER3 (antibody, chains of the INN, looked up)
heavy: EVQLLESGGGLVQPGGSLRLSCAASGFTFSHYVMAWVRQAPGKGLEWVSSISSSGGWTLYADSVKGRFTISRDNSKNTLYLQMNSLRAEDTAVYYCTRGLKMATIFDYWGQGTLVTVSSASTKGPSVFPLAPCSRSTSESTAALGCLVKDYFPEPVTVSWNSGALTSGVHTFPAVLQSSGLYSLSSVVTVPSSNFGTQTYTCNVDHKPSNTKVDKTVERKCCVECPPCPAPPVAGPSVFLFPPKPKDTLMISRTPEVTCVVVDVSHEDPEVQFNWYVDGVEVHNAKTKPREEQFNSTFRVVSVLTVVHQDWLNGKEYKCKVSNKGLPAPIEKTISKTKGQPREPQVYTLPPSREEMTKNQVSLTCLVKGFYPSDIAVEWESNGQPENNYKTTPPMLDSDGSFFLYSKLTVDKSRWQQGNVFSCSVMHEALHNHYTQKSLSLSPG
light: QSALTQPASVSGSPGQSITISCTGTSSDVGSYNVVSWYQQHPGKAPKLIIYEVSQRPSGVSNRFSGSKSGNTASLTISGLQTEDEADYYCCSYAGSSIFVIFGGGTKVTVLGQPKAAPSVTLFPPSSEELQANKATLVCLVSDFYPGAVTVAWKADGSPVKVGVETTKPSKQSNNKYAASSYLSLTPEQWKSHRSYSCRVTHEGSTVEKTVAPAECS
